This is an account of results in the supplement of paper PMC10567573.

To fix the notation:
B1: TRIM55 (parent)
chain: FQASNPYLPTRGGTTMASGGRFRC
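Further: lentivirally expressed fusions sorted by FACS into six bins by GFP to DsRed ratio, PSI derived from sequencing read proportions per bin multiplied by bin number.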

In this series the parent is B1. The series is described as follows: protein stability index of a GFP-peptide fusion (GPS, HEK-293T) (PSI 1-6); higher = more stable. The settings on record: c terminus: a fixed tail appended.
With AQASNPYLPTRGGTTMASGGRFRC [F1A], the protein stability index stood at 3.51.
For GQASNPYLPTRGGTTMASGGRFRC [F1G] the value was 3.91; for TQASNPYLPTRGGTTMASGGRFRC [F1T], 3.49; for SQASNPYLPTRGGTTMASGGRFRC [F1S], 3.52.
Consider CQASNPYLPTRGGTTMASGGRFRC [F1C], for which the protein stability index is 2.2.
Then WQASNPYLPTRGGTTMASGGRFRC [F1W], with 2.58; and DQASNPYLPTRGGTTMASGGRFRC [F1D], with 3.43; and IQASNPYLPTRGGTTMASGGRFRC [F1I], with 3.13.
Turning to FQASEPYLPTRGGTTMASGGRFRC [N5E], the protein stability index is 2.58.
As for FQASLPYLPTRGGTTMASGGRFRC [N5L], the protein stability index amounted to 2.04.
For FQASYPYLPTRGGTTMASGGRFRC [N5Y] the value was 2.14; for FQASSPYLPTRGGTTMASGGRFRC [N5S], 3.55; for FQASAPYLPTRGGTTMASGGRFRC [N5A], 2.65.
Then FQASWPYLPTRGGTTMASGGRFRC [N5W], with 2.49; and FQASTPYLPTRGGTTMASGGRFRC [N5T], with 2; and FQASKPYLPTRGGTTMASGGRFRC [N5K], with 1.78.
For FQASIPYLPTRGGTTMASGGRFRC [N5I] the value was 2.51; for FQASVPYLPTRGGTTMASGGRFRC [N5V], 2.1; for FQYSNPYLPTRGGTTMASGGRFRC [A3Y], 1.95.
As for FQGSNPYLPTRGGTTMASGGRFRC [A3G], the protein stability index is 1.95.
Consider FQNSNPYLPTRGGTTMASGGRFRC [A3N], for which the protein stability index was determined as 2.18.
Take FQMSNPYLPTRGGTTMASGGRFRC [A3M]: the protein stability index is 1.83.
Consider FQKSNPYLPTRGGTTMASGGRFRC [A3K], for which the protein stability index came to 1.69.
Turning to FQSSNPYLPTRGGTTMASGGRFRC [A3S], the protein stability index came out at 2.27.
In the case of FQVSNPYLPTRGGTTMASGGRFRC [A3V], the protein stability index turned out to be 2.28.
For FQRSNPYLPTRGGTTMASGGRFRC [A3R] the value was 2.46.
For FQFSNPYLPTRGGTTMASGGRFRC [A3F] the value was 2.69.
Then FQASNPYLPTRGGTTMASGGRHRC [F22H], with 2.29; and FQASNPYLPTRGGTTMASGGRVRC [F22V], with 1.38.
FQASNPYLPTRGGTTMASGGRCRC [F22C]: the protein stability index came to 2.18.
Consider FQASNPYLPTRGGTTMASGGRSRC [F22S], for which the protein stability index is 1.75.
For FQASNPYLPTRGGTTMASGGRDRC [F22D], the protein stability index worked out at 1.41.
For FQASNPILPTRGGTTMASGGRFRC [Y7I] the value was 2.83.
Then FQASNPDLPTRGGTTMASGGRFRC [Y7D], with 3.76.
In the case of FQASNPRLPTRGGTTMASGGRFRC [Y7R], the protein stability index was 3.25.
Then FQASNPQLPTRGGTTMASGGRFRC [Y7Q], with 3.45; and FQASNPFLPTRGGTTMASGGRFRC [Y7F], with 2.43.
Then FQASNPSLPTRGGTTMASGGRFRC [Y7S], with 3.18; and FQASNPALPTRGGTTMASGGRFRC [Y7A], with 3.52.
As for FQASNPYLPDRGGTTMASGGRFRC [T10D], the protein stability index stood at 1.61.
Then FQASNPYLPGRGGTTMASGGRFRC [T10G], with 2.03; and FQASNPYLPMRGGTTMASGGRFRC [T10M], with 3.72.
As to FQASNPYLPWRGGTTMASGGRFRC [T10W], the protein stability index was 2.81.
For FQASNPYLPFRGGTTMASGGRFRC [T10F] the value was 2.19; for FQASNPYLPPRGGTTMASGGRFRC [T10P], 2.37.
As for FQASNPYLPRRGGTTMASGGRFRC [T10R], the protein stability index is 1.56.
Then FQASNPYLPKRGGTTMASGGRFRC [T10K], with 1.74.
For FQASNPYLPTRSGTTMASGGRFRC [G12S] the value was 2.61.
On to FQASNPYLPTRRGTTMASGGRFRC [G12R], for which the protein stability index worked out at 2.79.
With FQASNPYLPTRTGTTMASGGRFRC [G12T], the protein stability index amounted to 2.13.
For FQASNPYLPTRFGTTMASGGRFRC [G12F] the value was 2.86.
With FQASNPYLPTRYGTTMASGGRFRC [G12Y], the protein stability index was 1.81.
Turning to FQASNPYLPTRLGTTMASGGRFRC [G12L], the protein stability index stood at 2.67.
Consider FQASNPYLPTRGGTTMASGLRFRC [G20L], for which the protein stability index turned out to be 2.24.
For FQASNPYLPTRGGTTMASGFRFRC [G20F] the value was 1.53; for FQASNPYLPTRGGTTMASGRRFRC [G20R], 1.96.
FQASNPYLPTRGGTTMASGARFRC [G20A]: the protein stability index came out at 2.62.
As for FQASNPYLPTRGGTTMASGDRFRC [G20D], the protein stability index amounted to 1.72.
Turning to FQASNPYLPTRGGTTMASGCRFRC [G20C], the protein stability index stood at 1.6.
Take FQASNPYLPTRGGTTMASGNRFRC [G20N]: the protein stability index came to 1.72.
In the case of FQASNPYLPTRGGTTMASGHRFRC [G20H], the protein stability index turned out to be 1.66.
For FQASNPYLPTRGGTTMASGTRFRC [G20T] the value was 1.71; for FQASNPYLPTRGGATMASGGRFRC [T14A], 1.93; for FQASNPYLPTRGGVTMASGGRFRC [T14V], 1.54.
For FQASNPYLPTRGGQTMASGGRFRC [T14Q] the value was 2.52.
Regarding FQASNPYLPTRGGHTMASGGRFRC [T14H], the protein stability index was found to be 1.37.
With FQAANPYLPTRGGTTMASGGRFRC [S4A], the protein stability index is 2.11.
Turning to FQADNPYLPTRGGTTMASGGRFRC [S4D], the protein stability index worked out at 1.24.
In the case of FQAGNPYLPTRGGTTMASGGRFRC [S4G], the protein stability index is 1.1.
On to FQAINPYLPTRGGTTMASGGRFRC [S4I], for which the protein stability index was determined as 1.88.
Consider FQAENPYLPTRGGTTMASGGRFRC [S4E], for which the protein stability index came out at 1.95.
Then FQASNPYLRTRGGTTMASGGRFRC [P9R], with 2.1; and FQASNPYLQTRGGTTMASGGRFRC [P9Q], with 1.72.
Take FQASNPYLETRGGTTMASGGRFRC [P9E]: the protein stability index is 2.17.
In the case of FQASNPYLKTRGGTTMASGGRFRC [P9K], the protein stability index worked out at 2.09.
On to FQASNPYLWTRGGTTMASGGRFRC [P9W], for which the protein stability index is 2.09.
Take FQASNPYLNTRGGTTMASGGRFRC [P9N]: the protein stability index was found to be 1.85.
For FQASNPYLSTRGGTTMASGGRFRC [P9S] the value was 1.7.
For FQASNPYLGTRGGTTMASGGRFRC [P9G] the value was 1.63; for FQASNPYLPTRGGTTMASGGRFHC [R23H], 1.56.
Then FQASNPYLPTRGGTTMASGGRFLC [R23L], with 2.98; and FQASNPYLPTRGGTTMASGGRFNC [R23N], with 1.48; and FQASNPYLPTRGGTTMASGGRFCC [R23C], with 2.9.
As to FQASNPYLPTRGGTTMASGGRFFC [R23F], the protein stability index was 1.51.
Turning to FQASNPYLPTRGGTTMASGGRFYC [R23Y], the protein stability index is 2.5.
Then FQASNPYLPTRGGTTMASGGRFRQ [C24Q], with 2.22; and FQASNPYLPTRGGTTMASGGRFRP [C24P], with 1.41.
In the case of FQASNPYLPTRGGTTMASGGRFRY [C24Y], the protein stability index is 1.62.
For FQASNPYLPTRGGTTMASGGRFRW [C24W] the value was 1.94.
Regarding FQASNPYLPTRGGTTMASGGRFRT [C24T], the protein stability index amounted to 2.
In the case of FQASNPYLPTRGGTTMASGGRFRI [C24I], the protein stability index was 2.03.
Then FQASNPYLPTRGGTTMASGGRFRD [C24D], with 2.6; and FQASNPYLPTRGGTTMASGGRFRM [C24M], with 1.37; and FQASNPYLPTRGGTTMASGGRFRV [C24V], with 1.76.
